The values below come from ChEMBL document CHEMBL4033784, “Discovery of 1,5-Diphenylpyrazole-3-Carboxamide Derivatives as Potent, Reversible, and Selective Monoacylglycerol Lipase (MAGL) Inhibitors” (J Med Chem, 2018).

Substrate in this data set: Cc1cccc(Cn2nc(C(=O)N3CCC(Cc4ccccc4)CC3)cc2-c2ccc(O)cc2)c1
The following applies: Homo sapiens.

Description: Competitive inhibition of recombinant human MAGL assessed as substrate Km using 4-NPA as substrate after 30 mins by Michaelis-Menten plot analysis

B1: Monoglyceride lipase (Homo sapiens), Q99685 (protein)
chain: MPEESSPRRTPQSIPYQDLPHLVNADGQYLFCRYWKPTGTPKALIFVSHGAGEHSGRYEELARMLMGLDLLVFAHDHVGHGQSEGERMVVSDFHVFVRDVLQHVDSMQKDYPGLPVFLLGHSMGGAIAILTAAERPGHFAGMVLISPLVLANPESATTFKVLAAKVLNLVLPNLSLGPIDSSVLSRNKTEVDIYNSDPLICRAGLKVCFGIQLLNAVSRVERALPKLTVPFLLLQGSADRLCDSKGAYLLMELAKSQDKTLKIYEGAYHVLHKELPEVTNSVFHEINMWVSQRTATAGTASPP
B1: the Km (as a rule, the concentration of substrate that gives half-maximal velocity) is 210 µM.
